Target: HA-tagged p26 (long-distance movement protein p26 of Pea enation mosaic virus 2) (Pea enation mosaic virus 2)
Experiment: SDS-PAGE and Western blot; lysates of agroinfiltrated N. benthamiana leaves (10x PBS, 2% beta-mercaptoethanol), 10% SDS-PAGE, blot with anti-HA antibody; co-infiltrated with p14, GFP-3'UTR(PEMV) and U1D

Which stoichiometry N does the source give for “HA-tagged p26 (long-distance movement protein p26 of Pea enation mosaic virus 2) (natural protein)” here?
Its stoichiometry N is 2.
